Positions count from the first letter of the chain named. In names and notes the source's numbering stands.

Series [1] addresses T1, Biotin-Acp-DLDLEALAPYIPADDDFQL, human HIF-1a ODD peptide, wild type, not hydroxylated.
T1 chain: DLDLEALAPYIPADDDFQL

The target in series [2] is T2, Biotinylated human HIF-1a ODD peptide with Pro567 to Gly, not hydroxylated.
T2 chain: DLDLEALAPYIGADDDFQL

The target of series [3] is T3, Biotinylated human HIF-1a ODD peptide with L562A, not hydroxylated.
T3 chain: DLDLEAAAPYIPADDDFQL

Series [4] concerns the target T4, Biotinylated human HIF-1a ODD peptide with Y565A, not hydroxylated.
T4 chain: DLDLEALAPAIPADDDFQL

In series [5] the target is T5, Biotinylated human HIF-1a ODD peptide with A563G, not hydroxylated.
T5 chain: DLDLEALGPYIPADDDFQL

B1: human HPH 1 H196A with carboxy-terminal V5-HIS tag (protein)
chain: MPLGHIMRLDLEKIALEYIVPCLHEVGFCYLDNFLGEVVGDCVLERVKQLHCTGALRDGQLAGPRAGVSKRHLRGDQITWIGGNEEGCEAISFLLSLIDRLVLYCGSRLGKYYVKERSKAMVACYPGNGTGYVRHVDNPNGDGRCITCIYYLNKNWDAKLHGGILRIFPEGKSFIADVEPIFDRLLFFWSDRRNPAEVQPSYATRYAMTVWYFDAEERAEAKKKFRNLTRKTESALTED
B1: the prolyl hydroxylase activity entry in series [1] is on record as “Each of these mutations eliminated the prolyl hydroxylase activity of the native HPH 1 enzyme”.

B2: human HPH 1 D137A with carboxy-terminal V5-HIS tag (protein)
chain: B1 chain with D137A, A196H
B2: the prolyl hydroxylase activity entry in series [1] is “Each of these mutations eliminated the prolyl hydroxylase activity of the native HPH 1 enzyme”.

B3: human HPH 1 H135A with carboxy-terminal V5-HIS tag (protein)
chain: B1 chain with H135A, A196H
Turning to B3, the prolyl hydroxylase activity entry in series [1] was “Each of these mutations eliminated the prolyl hydroxylase activity of the native HPH 1 enzyme”.

B4: human HIF prolyl hydroxylase 1 (HPH 1) with carboxy-terminal V5-HIS tag (protein)
chain: B1 chain with A196H
On to B4, for which the “prolyl hydroxylation of variant peptide substrates” value was “a peptide containing a mutation of Pro^567 to glycine served as an equal, if not better, substrate for the human HPH enzymes” in series [2]; “unable to modify peptides containing the L562A, A563G or Y565A mutations” in series [3]; “unable to modify peptides containing the L562A, A563G or Y565A mutations” in series [4]; “unable to modify peptides containing the L562A, A563G or Y565A mutations” in series [5]. Also, the “prolyl hydroxylase activity, [^35S]-pVHL pull-down assay” value in series [1] is given as “Of the five candidate enzymes assayed, only one, HPH-1, was able to enhance pVHL association with the biotinylated peptide”.

B5: recombinant human HPH 2 with amino-terminal MBP, purified from E. coli (protein)
chain: ANDSGGPGGPSPSERDRQYCELCGKMENLLRCSRCRSSFYCCKEHQRQDWKKHKLVCQGSEGALGHGVGPHQHSGPAPPAAVPPPRAGAREPRKAAARRDNASGDAAKGKVKAKPPADPAAAASPCRAAAGGQGSAVAAEAEPGKEEPPARSSLFQEKANLYPPSNTPGDALSPGGGLRPNGQTKPLPALKLALEYIVPCMNKHGICVVDDFLGKETGQQIGDEVRALHDTGKFTDGQLVSQKSDSSKDIRGDKITWIEGKEPGCETIGLLMSSMDDLIRHCNGKLGSYKINGRTKAMVACYPGNGTGYVRHVDNPNGDGRCVTCIYYLNKDWDAKVSGGILRIFPEGKAQFADIEPKFDRLLFFWSDRRNPHEVQPAYATRYAITVWYFDADERARAKVKYLTGEKGVRVELNKPSDSVGKDVF
Turning to B5, the “prolyl hydroxylation of variant peptide substrates” value is recorded as “a peptide containing a mutation of Pro^567 to glycine served as an equal, if not better, substrate for the human HPH enzymes” in series [2]; “unable to modify peptides containing the L562A, A563G or Y565A mutations” in series [3]; “unable to modify peptides containing the L562A, A563G or Y565A mutations” in series [4]; “unable to modify peptides containing the L562A, A563G or Y565A mutations” in series [5]. Besides, in series [1], the prolyl hydroxylase activity entry is “Purified HPH 2 was able to hydroxylate the HIF-1a peptide substrate”.

B6: human HPH 2 (splice variant) with carboxy-terminal V5-HIS tag, in vitro translated (protein)
chain: B5 chain
Consider B6, for which, in series [1], the “prolyl hydroxylase activity, [^35S]-pVHL pull-down assay” value was “both of these enzymes were observed to catalyze the hydroxylation of the key proline residue in the HIF-1a peptide substrate”.
